In PMC11021369, “Resolving the polycistronic aftermath: Essential role of topoisomerase IA in preventing R-loops in Leishmania” (The Journal of Biological Chemistry, 2024):

Legend:
Human TOPIB = molecular target: T1, Human TOPIB (Homo sapiens, UniProt P11387); assay: plasmid DNA relaxation assay with commercial human TOPIB, […] drug (Fig. S3C); format: biochemical
T1 construct: gene TOP1
T1 sequence (P11387 2-765): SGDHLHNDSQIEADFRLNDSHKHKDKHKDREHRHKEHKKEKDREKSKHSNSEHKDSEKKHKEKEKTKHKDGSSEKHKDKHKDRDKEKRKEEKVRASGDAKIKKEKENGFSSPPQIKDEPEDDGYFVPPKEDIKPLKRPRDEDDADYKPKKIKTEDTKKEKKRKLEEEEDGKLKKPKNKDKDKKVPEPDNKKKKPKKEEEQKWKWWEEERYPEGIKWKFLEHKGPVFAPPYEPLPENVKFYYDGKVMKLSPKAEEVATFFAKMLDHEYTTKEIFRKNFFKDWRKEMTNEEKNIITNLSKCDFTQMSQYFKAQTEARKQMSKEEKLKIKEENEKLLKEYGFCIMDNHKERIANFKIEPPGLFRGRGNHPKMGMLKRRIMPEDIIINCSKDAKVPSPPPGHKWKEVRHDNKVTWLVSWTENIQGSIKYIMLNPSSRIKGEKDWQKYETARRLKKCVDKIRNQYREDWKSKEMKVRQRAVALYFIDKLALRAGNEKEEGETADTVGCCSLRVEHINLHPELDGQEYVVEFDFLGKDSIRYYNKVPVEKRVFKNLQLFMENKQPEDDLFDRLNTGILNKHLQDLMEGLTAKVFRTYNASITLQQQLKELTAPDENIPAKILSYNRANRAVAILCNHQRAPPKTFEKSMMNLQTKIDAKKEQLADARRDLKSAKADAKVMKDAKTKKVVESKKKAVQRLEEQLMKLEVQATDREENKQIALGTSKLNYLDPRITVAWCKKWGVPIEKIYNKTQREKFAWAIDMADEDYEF

[1] = molecular target: T2, LdTOPIA (Leishmania donovani DNA topoisomerase IA) (Leishmania donovani, UniProt A0A3S7WW83); assay: plasmid DNA relaxation assay with purified LdTOPIA ([…] drug), agarose gel; format: biochemical
T2 construct: gene LdCL_210006600; full length, 7xHis-LdTOPIA-6xHis (809 aa), expressed in L. tarentolae LtT7TR
T2 sequence (A0A3S7WW83 1-809): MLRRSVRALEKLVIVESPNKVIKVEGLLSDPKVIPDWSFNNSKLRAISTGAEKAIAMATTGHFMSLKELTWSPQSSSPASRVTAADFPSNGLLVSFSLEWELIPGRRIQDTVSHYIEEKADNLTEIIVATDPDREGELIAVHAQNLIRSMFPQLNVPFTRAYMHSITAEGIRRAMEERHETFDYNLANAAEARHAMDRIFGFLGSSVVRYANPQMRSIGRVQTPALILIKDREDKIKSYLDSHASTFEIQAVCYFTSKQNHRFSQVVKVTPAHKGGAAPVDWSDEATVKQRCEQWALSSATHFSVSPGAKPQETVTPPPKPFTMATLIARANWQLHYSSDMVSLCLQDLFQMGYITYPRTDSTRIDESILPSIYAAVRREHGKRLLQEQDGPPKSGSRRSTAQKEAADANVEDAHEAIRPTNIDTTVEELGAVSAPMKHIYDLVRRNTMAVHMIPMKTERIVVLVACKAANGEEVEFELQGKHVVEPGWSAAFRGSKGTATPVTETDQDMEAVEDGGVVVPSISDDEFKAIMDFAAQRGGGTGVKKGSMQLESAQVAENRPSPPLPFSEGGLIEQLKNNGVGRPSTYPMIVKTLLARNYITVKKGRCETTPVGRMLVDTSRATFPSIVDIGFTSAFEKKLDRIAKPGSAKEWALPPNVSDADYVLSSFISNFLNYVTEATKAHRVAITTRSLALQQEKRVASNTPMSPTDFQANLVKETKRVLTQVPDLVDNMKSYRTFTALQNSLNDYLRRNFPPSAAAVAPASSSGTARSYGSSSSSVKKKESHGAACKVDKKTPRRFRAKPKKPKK

[2] = molecular target: T3, LdTOPIA (DNA topoisomerase IA) (Leishmania donovani DD8, UniProt A0A3S7WW83 1-809); assay: fluorescence anisotropy; 30 nM DNA, 0.5 mM EDTA; 50 mM Tris pH 7.5, 100 mM NaCl, 0.5 mM DTT, 0.5 mM EDTA, 5% glycerol, 15 min, 25 °C (EMSA gel at 4 °C); settings: protein: recombinant, tags: N-term 7xHis, C-term 6xHis
T3 sequence: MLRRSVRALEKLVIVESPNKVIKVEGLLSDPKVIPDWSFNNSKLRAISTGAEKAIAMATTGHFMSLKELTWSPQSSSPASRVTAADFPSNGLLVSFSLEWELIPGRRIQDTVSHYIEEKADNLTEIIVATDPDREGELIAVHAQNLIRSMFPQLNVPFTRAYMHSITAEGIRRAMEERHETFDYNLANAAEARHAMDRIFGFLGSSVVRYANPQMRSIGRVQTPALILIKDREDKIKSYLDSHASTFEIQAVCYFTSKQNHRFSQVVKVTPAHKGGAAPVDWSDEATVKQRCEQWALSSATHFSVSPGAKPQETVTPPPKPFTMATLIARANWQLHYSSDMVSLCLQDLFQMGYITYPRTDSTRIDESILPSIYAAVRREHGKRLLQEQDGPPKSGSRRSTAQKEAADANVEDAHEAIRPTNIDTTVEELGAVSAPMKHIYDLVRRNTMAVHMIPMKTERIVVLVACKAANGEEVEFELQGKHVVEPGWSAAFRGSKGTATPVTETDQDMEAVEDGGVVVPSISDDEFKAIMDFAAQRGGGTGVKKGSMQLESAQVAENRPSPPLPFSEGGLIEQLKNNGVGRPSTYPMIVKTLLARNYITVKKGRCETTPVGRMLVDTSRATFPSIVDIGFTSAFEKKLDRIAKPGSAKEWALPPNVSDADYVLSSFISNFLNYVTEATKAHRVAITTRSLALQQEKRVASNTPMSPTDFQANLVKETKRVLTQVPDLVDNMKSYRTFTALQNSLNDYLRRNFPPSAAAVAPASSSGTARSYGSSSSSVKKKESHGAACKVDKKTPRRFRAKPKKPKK

[3] = molecular target: T4, RNase H I, catalytically inactive D210N (Homo sapiens, UniProt O60930 1-286, D210N); assay: fluorescence anisotropy; 30 nM duplex, 2-200 nM protein; 50 mM Tris pH 7.5, 100 mM NaCl, 0.5 mM DTT, 0.5 mM EDTA, 5% glycerol, 15 min, 25 °C (EMSA gel at 4 °C); settings: protein: recombinant; tags: His (pET15b; Ni-NTA purified); label: 5' FAM on RNA strand; blunt
T4 sequence: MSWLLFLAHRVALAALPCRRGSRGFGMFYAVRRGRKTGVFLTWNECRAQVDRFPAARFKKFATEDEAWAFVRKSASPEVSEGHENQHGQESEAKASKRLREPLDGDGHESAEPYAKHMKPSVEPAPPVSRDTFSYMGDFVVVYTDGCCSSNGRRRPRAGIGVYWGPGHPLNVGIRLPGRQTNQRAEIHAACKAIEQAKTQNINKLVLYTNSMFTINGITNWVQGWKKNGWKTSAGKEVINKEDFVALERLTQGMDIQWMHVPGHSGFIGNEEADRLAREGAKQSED

[4] = molecular target: T3, LdTOPIA (DNA topoisomerase IA); assay: fluorescence anisotropy; 50 mM Tris pH 7.5, 100 mM NaCl, 0.5 mM DTT, 0.5 mM EDTA, 5% glycerol, 15 min, 25 °C (EMSA gel at 4 °C); settings: protein: recombinant; tags: N-term 7xHis, C-term 6xHis; label: 5' FAM on RNA strand; blunt

## CC[C@@]1(O)C(=O)OCc2c1cc1n(c2=O)Cc2cc3ccccc3nc2-1 [CPT, Camptothecin]
Human TOPIB
  plasmid DNA relaxation assay with commercial human TOPIB, 10 μM drug (Fig. S3C): Etoposide and CPT could effectively inhibit plasmid relaxation of the TOPIB and TOPII respectively (Fig. S3C)

## CN(C)CCCN1c2ccccc2CCc2ccccc21 [imipramine]
[1]
  plasmid DNA relaxation assay with purified LdTOPIA (10, 20 and 40 μM drug), agar: Both imipramine and norclomipramine (NCL) could inhibit the DNA relaxation by LdTOPIA

B1: 32-nt ssDNA, FAM (ssDNA)
DNA: TATTGGGCGCTCTTCCGCTTCCTCGCTCACTG
[2]; label: 5' FAM
  Kd: 3.16 ± 0.12 nM

B2: 32-bp dsDNA, FAM (dsDNA)
DNA 1: TATTGGGCGCTCTTCCGCTTCCTCGCTCACTG
DNA 2: CAGTGAGCGAGGAAGCGGAAGAGCGCCCAATA
[2]; label: 5' FAM on strand 1, blunt
  Kd: 8.1 ± 0.23 nM

B3: DNA:RNA duplex, FAM-RNA (DNA:RNA)
RNA: UAUUGGGCGCUCUUCCGCUUCCUCGCUCACUG
DNA: CAGTGAGCGAGGAAGCGGAAGAGCGCCCAATA
[3]
  binding result: binds
[4]
  binding result: no binding
